Where only a bound is given, the exact number is not on record here.

The text below walks through data of the Immune Epitope Database (IEDB).

One test deals with HLA-A*02:02. As to the kind of experiment: IEDB peptide-MHC binding, purified MHC/competitive/radioactivity; filed as Kd, often an IC50 or EC50 that approximates it; ≥ and ≤ were set here for values at or beyond the usual limits of such assays. The note with it: source organism: SARS coronavirus Tor2.
For the sequence LLLEWLAEV, the Kd turned out to be 0.114 nM.

For LMSFTILCL, the Kd was determined as 0.269 nM.

MLFTKFFYL: the equilibrium dissociation constant (Kd) was 0.0849 nM.

Turning to NLAPHLLLIV, the Kd is 5.1 nM.

As for TQWSLFFFV, the Kd came out at 79.6 nM.

The test is the same for the next values; noted with them: source organism: Vaccinia virus WR.
In the case of DTDIVNNFI, the Kd worked out at 9320 nM.

ETKRNIARHL: the Kd was no less than 50000 nM.

Consider FTILEYLYI, for which the Kd was 1560 nM.

In the case of FTNSQIFNI, the Kd was 6.89 nM.

Take FVTDYVHEGV: the Kd was 23.8 nM.

On to GLCNYGGIL, for which the Kd is 97.7 nM.

As to GLRQQLEDI, the equilibrium dissociation constant (Kd) was 43 nM.

Turning to GMQFDKVYL, the Kd was 13.4 nM.

As for HAKYMVTDKT, the Kd was 9030 nM.

HLRASTTENA: the Kd came to 488 nM.

With IAGLKIEEI, the Kd was determined as 7660 nM.

As for ILPDKIDGL, the Kd worked out at 1.04 nM.

Consider IVPDADPPI, for which the dissociation constant (Kd) amounted to 5080 nM.

As to IVSKCIVQSV, the Kd was 123 nM.

In the case of KISVEKIKQT, the Kd is 1230 nM.

With LIFNVKSKLL, the Kd is 2390 nM.

Turning to LITLILSNKL, the Kd stood at 225 nM.

LLPLTSLVIT: the Kd came out at 999 nM.

On to LMIGNYFSGV, for which the Kd was found to be 0.126 nM.

Consider LTGNNTITT, for which the Kd came to 5750 nM.

Turning to LTSVDIETAI, the Kd was 509 nM.

For MAFILGIII, the dissociation constant Kd was found to be 9530 nM.

NTCKPTILAT: the Kd turned out to be 460 nM.

Regarding NTIAVITETI, the Kd was found to be 50.2 nM.

As to NTLISSDGA, the Kd turned out to be 7410 nM.

Regarding RTWKVLSIMA, the Kd was no less than 24000 nM.

As to SIMSMMNIT, the Kd was 4970 nM.

For the sequence SLVITYCLVT, the Kd turned out to be 286 nM.

As for STAEQLSKYV, the Kd turned out to be 1060 nM.

With STDQDTMLFA, the Kd turned out to be 646 nM.

Turning to SVNASKTINA, the Kd is 17300 nM.

TAGNKVDVDI: the Kd worked out at 11000 nM.

TVLTSVDIET: the Kd is 1720 nM.

Regarding VISTIANSNI, the Kd was determined as 282 nM.

As to VIVENDNVI, the Kd was 15500 nM.

Take YALEPRKEI: the Kd turned out to be 3700 nM.

As for YIEDELRRAA, the Kd worked out at 628 nM.

As to YISRDELWA, the Kd turned out to be 333 nM.

The target in a further test is HLA-A*02:06. The test is described as above. The note with it: source organism: Lymphocytic choriomeningitis virus (strain Armstrong).
For the sequence MSCDDVVFGI, the Kd was 249 nM.

Staying with this test, now noted: source organism: Mammarenavirus machupoense.
For the sequence SSWAVHWFS, the Kd is no less than 46800 nM.

The test is the same for the next values; noted with them: source organism: SARS coronavirus Tor2.
As for FLAHLQWFA, the Kd amounted to 0.574 nM.

Take FVVFLLVTL: the dissociation constant (Kd) is 37.7 nM.

Regarding LLLEWLAEV, the Kd was found to be 0.105 nM.

Turning to LMSFTILCL, the Kd came out at 1.84 nM.

As to MLFTKFFYL, the Kd was 1.43 nM.

Turning to NLAPHLLLIV, the Kd was determined as 125 nM.

In the case of TQWSLFFFV, the dissociation constant (Kd) worked out at 0.812 nM.

Still in this test, the particulars now being: source organism: Vaccinia virus WR.
In the case of DTDIVNNFI, the Kd was 15700 nM.

As for ETKRNIARHL, the Kd was no less than 69800 nM.

For the sequence FTILEYLYI, the Kd is 267 nM.

Turning to FTNSQIFNI, the Kd worked out at 4.79 nM.

For FVTDYVHEGV, the Kd stood at 10.6 nM.

Take GLCNYGGIL: the Kd stood at 1360 nM.

Turning to GLRQQLEDI, the Kd is 4310 nM.

On to GMQFDKVYL, for which the Kd was found to be 1910 nM.

For HAKYMVTDKT, the equilibrium dissociation constant (Kd) was no less than 65100 nM.

For HLRASTTENA, the Kd was no less than 69800 nM.

Take IAGLKIEEI: the Kd is 1970 nM.

ILPDKIDGL: the Kd amounted to 43.1 nM.

In the case of IVPDADPPI, the Kd was determined as 274 nM.

As to IVSKCIVQSV, the Kd is 552 nM.

As for KISVEKIKQT, the Kd was no less than 21000 nM.

Turning to LIFNVKSKLL, the equilibrium dissociation constant (Kd) was no less than 28500 nM.

Take LITLILSNKL: the dissociation constant (Kd) was determined as 633 nM.

For the sequence LLPLTSLVIT, the Kd is 1610 nM.

In the case of LMIGNYFSGV, the Kd came to 0.132 nM.

Regarding LTGNNTITT, the Kd was found to be 8680 nM.

Consider LTSVDIETAI, for which the Kd was 3130 nM.

Turning to MAFILGIII, the Kd was no less than 32500 nM.

For the sequence NTCKPTILAT, the Kd amounted to 3920 nM.

In the case of NTIAVITETI, the Kd was determined as 784 nM.

Turning to NTLISSDGA, the dissociation constant Kd is no less than 49400 nM.

As for RTWKVLSIMA, the Kd stood at 5750 nM.

For SIMSMMNIT, the Kd turned out to be 1760 nM.

As to SLVITYCLVT, the Kd came to 824 nM.

On to STAEQLSKYV, for which the Kd was 697 nM.

On to STDQDTMLFA, for which the Kd was found to be 2020 nM.

For SVNASKTINA, the Kd was no less than 28800 nM.

On to TAGNKVDVDI, for which the Kd is no less than 38000 nM.

Turning to TVLTSVDIET, the Kd was 961 nM.

For VISTIANSNI, the Kd amounted to 5160 nM.

As for VIVENDNVI, the Kd worked out at 7230 nM.

On to YALEPRKEI, for which the Kd was determined as 4110 nM.

For the sequence YIEDELRRAA, the Kd came to 204 nM.

Consider YISRDELWA, for which the dissociation constant (Kd) is 1200 nM.
